This note sets out measurements from patent US20260232759A1 (WISCONSIN ALUMNI RESEARCH FOUNDATION, published 2026).

This experiment deals with SARS-CoV-2 Spike protein (SARS-CoV-2, UniProt P0DTC2 14-1273). Kind of experiment: cell-based or functional assay.

No end group written: not given here. PEG‑cholesterol = not defined here

B1: D1 Q4 D32 E35 (peptide)
peptide: DISQINASVVNIEYEIKKLEEVAKKLEESLIDLQELGSGSGC(PEG‑cholesterol)
modifications: not fully specified (C-terminus); reading uncertain; also: β2- or β3-amino acids, presumably D1, Q4, D32, E35
On to B1, for which the “inhibition of S-mediated cell-cell fusion (β-Gal complementation), IC50” value was ~50 nM.

B2: D1 Q4 D32 Q34 (peptide)
peptide: DISQINASVVNIEYEIKKLEEVAKKLEESLIDLQELGSGSGC(PEG‑cholesterol)
modifications: not fully specified (C-terminus); reading uncertain; also: β2- or β3-amino acids, presumably D1, Q4, D32, Q34
For B2, the “inhibition of S-mediated cell-cell fusion (β-Gal complementation), IC50” value is ~10 nM.
